Data published in the supplement of paper PMC10567573.

B1: EPB41L3 (parent)
chain: FRFAPNHTKELEDKVIELHKSHRG

Variants of: B1
Test: protein stability index of a GFP-peptide fusion (GPS, HEK-293T) (PSI 1-6); higher = more stable
Conditions: c terminus: a fixed tail appended
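Further: lentivirally expressed fusions sorted by FACS into six bins by GFP to DsRed ratio, PSI derived from sequencing read proportions per bin multiplied by bin number.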

Variant	protein stability index
K14N	2.25
K14P	1.86
K14Q	1.56
K14R	1.97
K14S	1.97
K14T	2.31
K14V	2.2
K14W	1.96
K14Y	2.44
V15A	2.38
V15C	2.24
V15D	2.92
V15E	2.23
V15F	2.46
V15G	2.55
V15H	2.38
V15I	2.75
V15K	2.19
V15L	2.69
V15M	2.87
V15N	2.27
V15P	2.33
V15Q	2.54
V15R	1.95

Variant	protein stability index
V15S	2.44
V15T	2.47
V15W	1.93
V15Y	1.99
I16A	2.46
I16C	2.14
I16D	3.22
I16E	2.95
I16F	1.77
I16G	1.98
I16H	2.09
I16K	2.1
I16L	2.01
I16M	2.1
I16N	2.42
I16P	2.76
I16Q	2.12
I16R	1.81
I16S	2.11
I16T	2.27
I16V	2.71
I16W	2.13
I16Y	2.43
E17A	1.74

Variant	protein stability index
E17C	1.95
E17D	2.18
E17F	2.34
E17G	1.76
E17H	2.04
E17I	2.21
E17K	1.72
E17L	1.67
E17M	2.5
E17N	2.29
E17P	2.43
E17Q	1.55
E17S	2.12
E17T	1.86
E17V	2.55
E17W	2.18
E17Y	2.66
L18A	3.07
L18C	2.9
L18D	3.17
L18E	2.43
L18F	1.73
L18G	2.02
L18H	1.82

Variant	protein stability index
L18I	2.35
L18K	2.6
L18M	3.06
L18N	2.01
L18P	1.89
L18Q	2.53
L18R	2.75
L18S	2.51
L18T	3.79
L18V	1.93
L18W	1.78
L18Y	1.36
H19A	2.11
H19C	2.03
H19D	2.07
H19E	2.72
H19F	1.95
H19G	1.88
H19I	1.83
H19K	1.99
H19L	2.12
H19M	2.05
H19P	2.72
H19Q	2.66

Variant	protein stability index
H19R	2.19
H19S	2.11
H19T	1.81
H19V	1.89
H19W	1.53
H19Y	1.88
K20A	2.29
K20C	2.09
K20D	1.96
K20E	2.84
K20F	1.55
K20G	2.22
K20H	2.44
K20I	2.12
K20L	2.81
K20M	1.81
K20N	2.57
K20P	2.64
K20Q	1.29
K20R	1.39
K20S	1.67
K20T	2.12
K20V	2.71
K20W	1.54

Variant	protein stability index
K20Y	2.95
S21A	2.47
S21C	1.78
S21D	2.56
S21E	2.9
S21F	1.78
S21G	2.42
S21H	1.71
S21I	2.25
S21K	1.74
S21L	1.83
S21M	2.14
S21N	2.88
S21Q	2.59
S21R	2.1
S21T	2.47
S21V	2.2
S21W	1.41
S21Y	2.4
H22A	1.98
H22C	1.95
H22D	2.48
H22E	2.52
H22F	1.92

Variant	protein stability index
H22G	1.91
H22I	1.68
H22K	1.4
H22L	1.63
H22M	1.55
H22N	2.34
H22P	2.17
H22Q	2.01
H22R	1.68
H22S	2.4
H22T	1.76
H22V	1.67
H22W	1.65
H22Y	2.96
R23A	2.07
R23C	2.4
R23D	2.84
R23E	3.15
R23F	1.5
R23G	3.6
R23H	1.92
R23I	1.72
R23K	2.37
